For experiment [1], the target named is T1, human CDCP1 on tumor cells (human, UniProt Q9H5V8 30-836).
T1 construct: whole, on cells; cell line is named under assay or readout
T1 sequence (looked up): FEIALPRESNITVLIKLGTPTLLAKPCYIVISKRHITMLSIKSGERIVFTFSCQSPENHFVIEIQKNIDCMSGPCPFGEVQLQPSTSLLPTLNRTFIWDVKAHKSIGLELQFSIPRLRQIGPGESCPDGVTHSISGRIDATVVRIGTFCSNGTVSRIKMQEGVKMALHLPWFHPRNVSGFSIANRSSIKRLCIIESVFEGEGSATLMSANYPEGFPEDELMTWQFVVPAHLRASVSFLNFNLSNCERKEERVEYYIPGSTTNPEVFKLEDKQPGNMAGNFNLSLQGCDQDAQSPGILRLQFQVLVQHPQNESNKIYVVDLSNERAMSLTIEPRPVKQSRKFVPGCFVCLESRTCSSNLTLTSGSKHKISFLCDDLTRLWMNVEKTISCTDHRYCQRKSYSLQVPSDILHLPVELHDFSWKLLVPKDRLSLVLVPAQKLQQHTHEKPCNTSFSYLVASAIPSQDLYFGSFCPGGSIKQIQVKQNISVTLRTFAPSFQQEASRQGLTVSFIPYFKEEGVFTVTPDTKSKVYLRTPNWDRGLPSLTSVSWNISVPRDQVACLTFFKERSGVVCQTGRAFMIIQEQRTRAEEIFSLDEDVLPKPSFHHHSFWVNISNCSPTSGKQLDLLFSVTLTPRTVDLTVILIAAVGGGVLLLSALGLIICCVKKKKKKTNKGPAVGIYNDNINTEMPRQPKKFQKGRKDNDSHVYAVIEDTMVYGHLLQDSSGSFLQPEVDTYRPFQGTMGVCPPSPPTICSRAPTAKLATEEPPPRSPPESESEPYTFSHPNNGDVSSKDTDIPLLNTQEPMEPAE
The experiment is described as follows: flow cytometry, MDA-MB-231 cells, 1.5 µg/ml. Here is the method: Flow cytometry was used to detect the binding capacity of antibody to tumor cells. MDA-MB-231 cells were subjected to digestion with 5 mM EDTA, centrifuged, and counted, the cells were resuspended with FACS buffer (PBS+2% FBS). Cell density was adjusted to 4×10⁵/ml, 50 μL (2×10⁴ tumor cells) were added per well, an Fc blocker (Human TruStain FcX™, Biolegend, 422302) was added for blocking at room temperature for 10 mins, then the antibody to be tested was added at a final concentration of 1.5 μg/ml. The mixture was incubated out at 4° C. for 30 mins, centrifuged and washed, a secondary antibody (PE anti-human IgG Fc Antibody, Biolegend, 410708) was added for incubation, and then detection was performed using a flow cytometer. Geo-MFI was used as the preliminary criterion for determining antibody-cell binding.

Experiment [2] deals with T2, huCDCP1-his (human, UniProt Q9H5V8 30-667, limits assumed).
T2 construct: also called human CDCP1 antigen; not shown: his tag
T2 sequence (looked up): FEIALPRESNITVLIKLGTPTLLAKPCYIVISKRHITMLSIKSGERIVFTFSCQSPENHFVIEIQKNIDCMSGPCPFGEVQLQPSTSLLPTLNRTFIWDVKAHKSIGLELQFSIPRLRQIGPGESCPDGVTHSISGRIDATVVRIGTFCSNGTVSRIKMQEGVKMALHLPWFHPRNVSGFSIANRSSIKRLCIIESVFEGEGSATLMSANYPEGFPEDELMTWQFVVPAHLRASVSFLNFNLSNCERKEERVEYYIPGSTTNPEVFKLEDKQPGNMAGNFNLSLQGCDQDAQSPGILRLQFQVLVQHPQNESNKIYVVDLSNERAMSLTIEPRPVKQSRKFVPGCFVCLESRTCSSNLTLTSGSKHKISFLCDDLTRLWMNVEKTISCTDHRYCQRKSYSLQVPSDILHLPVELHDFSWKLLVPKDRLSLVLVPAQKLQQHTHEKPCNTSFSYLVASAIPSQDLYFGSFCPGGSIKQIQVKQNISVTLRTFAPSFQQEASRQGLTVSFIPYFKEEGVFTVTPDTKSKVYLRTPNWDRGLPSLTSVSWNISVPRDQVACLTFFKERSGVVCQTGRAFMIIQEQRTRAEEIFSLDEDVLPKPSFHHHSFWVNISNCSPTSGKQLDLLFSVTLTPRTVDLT
The experiment can be described thus: SPR (Caterra), antigen immobilized. On the procedure:
(§1) The candidate antibodies obtained from Example 6 were subjected to gene cloning, constructed into an expression vector for a small amount of expression in CHO cells, and purified with an Fc affinity column (AT Protein A Diamond Plus. No. AA402312). Antibody purity was analyzed by HPLC and determined by Nanodrop. High-throughput affinity assay was carried out for a small amount of antibodies by Caterra. […] At the same time, 2 μg/ml antigen human CDCP1-C and 2 μg/ml human CDCP1-B were used for coating, and the antigen-antibody binding capacity was tested by ELISA for verification.

Experiment [3] has as its target T3, HuCDCP1-B (human, UniProt Q9H5V8 343-667).
T3 construct: range 343-667; expressed in HEK-293T, purified by Fc/his tag; also called human CDCP1-B; membrane-proximal region of CDCP1; not shown: Fc or his tag
T3 sequence (looked up): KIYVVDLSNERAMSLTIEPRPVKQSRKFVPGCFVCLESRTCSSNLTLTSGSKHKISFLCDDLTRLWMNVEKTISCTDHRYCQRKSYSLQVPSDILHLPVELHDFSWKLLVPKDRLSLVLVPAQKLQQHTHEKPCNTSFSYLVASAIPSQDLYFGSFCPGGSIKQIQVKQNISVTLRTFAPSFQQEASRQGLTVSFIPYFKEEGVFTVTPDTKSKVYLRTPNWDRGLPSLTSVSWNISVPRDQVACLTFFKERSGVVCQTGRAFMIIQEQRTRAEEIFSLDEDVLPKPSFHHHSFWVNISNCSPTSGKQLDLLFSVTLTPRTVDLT
The experiment is described as follows: ELISA, coated antigen. Here is the method: as §1

For experiment [4], the target named is T4, HuCDCP1-C (human, UniProt Q9H5V8 30-667).
T4 construct: range 30-667; expressed in HEK-293T, purified by Fc/his tag; also called human CDCP1-C; full-length extracellular domain of human CDCP1; not shown: Fc or his tag
T4 sequence (looked up): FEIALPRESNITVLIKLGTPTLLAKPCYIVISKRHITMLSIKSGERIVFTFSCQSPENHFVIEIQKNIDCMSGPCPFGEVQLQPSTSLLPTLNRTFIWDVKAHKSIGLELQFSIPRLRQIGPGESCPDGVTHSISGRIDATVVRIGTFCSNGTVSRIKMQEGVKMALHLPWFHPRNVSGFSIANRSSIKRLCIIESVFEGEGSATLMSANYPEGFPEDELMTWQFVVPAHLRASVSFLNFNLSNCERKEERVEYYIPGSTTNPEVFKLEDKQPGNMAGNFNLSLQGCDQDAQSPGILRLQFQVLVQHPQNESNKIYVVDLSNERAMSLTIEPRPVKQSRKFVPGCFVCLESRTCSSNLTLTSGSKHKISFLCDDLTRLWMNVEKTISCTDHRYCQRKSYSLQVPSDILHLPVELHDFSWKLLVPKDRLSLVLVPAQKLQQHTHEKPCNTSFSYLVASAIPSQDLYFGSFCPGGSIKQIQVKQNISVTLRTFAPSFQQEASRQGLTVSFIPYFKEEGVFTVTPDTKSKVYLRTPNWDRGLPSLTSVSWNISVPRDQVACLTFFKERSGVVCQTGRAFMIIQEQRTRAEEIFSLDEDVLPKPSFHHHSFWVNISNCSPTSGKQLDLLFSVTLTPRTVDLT
The experiment is described as follows: ELISA, coated antigen. On the procedure: as §1

B1: SB8 (antibody, V domains shown)
VH: QVTLKESGPGILKPSQTLSLTCSFSGFSLSTSGVGVGWIRQPSGKGLEWLAHIWWDDEKYYNPSLKSHFTISKDTSRNQVFLKITSVDTADTATYYCVKEGDGMDYWGQGTSVTVSS
VL: QAVVTQESALTTSPGETVTLTCRSSTGAVATSNYANWVQEKPDHLFTGLIGGTNNRVPGVPARFSGSLIGDKAALTITGAQTEDEAIYFCALWYSNHWVFGGGTKLTVL
notes: single B cell antibody, expressed in CHO
With B1, the binding result in experiment [1] is “binds”.

B2: SB9 (antibody, V domains shown)
VH: DVKLVESGGGLVKPGGSLKLSCAASGFTFSSFTMSWVRQTPEKRLEWVATISSSGSYTYYPDSVKGRFTISRDNAKNTLYLQMSSLKSEDTAMYYCTSPDYYGRSYGYFDYWGQGTTLTVSS
VL: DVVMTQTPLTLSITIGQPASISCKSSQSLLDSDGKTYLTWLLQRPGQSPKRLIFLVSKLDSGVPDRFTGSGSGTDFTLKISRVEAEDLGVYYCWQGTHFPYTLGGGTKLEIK
notes: as for B1
For B2, the binding result in experiment [1] is recorded as “binds”.

B3: SB5 (antibody, V domains shown)
VH: QVQLRESGPGLVAPSQSLSITCTVSGFSLTDFGVNWVRQPPGKGLEWLGIIWANGRIEYNSALKSRLSISKDNSRSQVFLKLNSLQTDDTARYYCARDHDYDVEAMDYWGQGTSVTVSA
VL: QIVLTQSPAIKSASPGEKVTMTCSASSSVIYMHWYQQKSGSSPKRWIYDTSKLASGVPVRFSGSGSGTSYSLTISTMEAEDAATYYCQQWSSYPPTFGGGTKVEIK
notes: as for B1
Regarding B3, the Kd (as a rule, the free concentration of one partner at which half of the binding sites on the other are occupied at equilibrium, for simple one-to-one binding) in experiment [2] was found to be 0.835 nM. Further, the EC50 – broadly, the concentration that produces a half-maximal response – in experiment [3] was 0.208 nM; in experiment [4] it was 0.413 nM.

Source of the values: US20260250410A1 (SICHUAN HUIYU PHARMACEUTICAL, published 2026).
